From publication PMC6556580 (The Journal of Biological Chemistry, 2019)
Where “and” joins values, the source holds several entries; their conditions need not be identical. Equal values may be shown once. Read-outs that look alike come from different tables or passages of the source.

Tests used:
[1] = target: the molecule itself; assay: SEC-MALS; samples at 0.5–20 mg/ml in 20 mM Tris pH 8.0, 150 mM KCl, 2 mM DTT; Superdex 200 Increase 10/300 GL; concentration series and enriched species; self-association: dimer and higher oligomers of dimers
[2] = target: the molecule itself; assay: dynamic light scattering; 20 °C, samples at 5–20 mg/ml in 20 mM Tris pH 8.0, 150 mM KCl, 2 mM DTT; size distribution by volume
[3] = target: the molecule itself; assay: SEC-MALS; samples at 0.5–20 mg/ml in 20 mM Tris pH 8.0, 150 mM KCl, 2 mM DTT; Superdex 200 Increase 10/300 GL; concentration series and enriched species; self-association: dimer and higher oligomers of dimers; remark: listed apart in the source

B1: SYCE3 9–88 Y11N/L15N (domain or fragment, human, UniProt A1L190 9-88, looked up)
chain: RNNDNMNKMLSDLNKDLEKLLEEMEKISVQATWMAYDMVVMRTNPTLAESMRRLEDAFVNCKEEMEKNWQELLHETKQRL
notes: SYCE3, human, amino acids 9–88 with Y11N and L15N (label of the legend; the text says 'mutation to glutamine'); source: E. coli BL21(DE3), purified (Ni-NTA, amylose, anion exchange, SEC where appropriate); not shown: His6, N-terminal, cleaved; MBP, N-terminal, cleaved
Question: How did the “stoichiometry N” value [1] turn out when B1 was run?
Answer: Its value is 2.

B2: SYCE3 9–88 (domain or fragment, human, UniProt A1L190 9-88, looked up)
chain: RNYDNMLKMLSDLNKDLEKLLEEMEKISVQATWMAYDMVVMRTNPTLAESMRRLEDAFVNCKEEMEKNWQELLHETKQRL
notes: SYCE3, human, amino acids 9–88 (unstructured N terminus removed); source: E. coli BL21(DE3), purified (Ni-NTA, amylose, anion exchange, SEC where appropriate); not shown: His6, N-terminal, cleaved; MBP, N-terminal, cleaved
Question: Does B2 bind [2]?
Answer: Result: binds

B3: SYCE3 1–88 W41A/Y44A (natural protein, human, UniProt A1L190 1-88, looked up)
chain: MDDADPEERNYDNMLKMLSDLNKDLEKLLEEMEKISVQATAMAADMVVMRTNPTLAESMRRLEDAFVNCKEEMEKNWQELLHETKQRL
notes: SYCE3, human, amino acids 1–88 with W41A and Y44A; also called SYCE3 W41A/Y44A; source: E. coli BL21(DE3), purified (Ni-NTA, amylose, anion exchange, SEC where appropriate); not shown: His6, N-terminal, cleaved; MBP, N-terminal, cleaved
Question: With B3 as the protein, how does the “stoichiometry N” value [3] read?
Answer: Its value is 2 and 4.

B4: SYCE3 1–88 PPP-loop (natural protein, human, UniProt A1L190 1-88, looked up)
chain: MDDADPEERNYDNMLKMLSDLNKDLEKLLEEMEKISVQATWMAYDMVVGGPPPTLAESMRRLEDAFVNCKEEMEKNWQELLHETKQRL
notes: also called SYCE3 PPP-loop; source: E. coli BL21(DE3), purified (Ni-NTA, amylose, anion exchange, SEC where appropriate); not shown: His6, N-terminal, cleaved; MBP, N-terminal, cleaved
Question: For B4, which “stoichiometry N” value [3] is on record?
Answer: Its value is 2.

B5: Human SYCE3 full-length (amino acids 1–88) (natural protein, UniProt A1L190 1-88, looked up)
chain: MDDADPEERNYDNMLKMLSDLNKDLEKLLEEMEKISVQATWMAYDMVVMRTNPTLAESMRRLEDAFVNCKEEMEKNWQELLHETKQRL
notes: SYCE3, human, full length, amino acids 1–88 (protein of 88 amino acids); it assembles further with concentration; Tags removed with TEV protease; also called SYCE3 1–88; WT SYCE3; source: E. coli BL21(DE3), purified (Ni-NTA, amylose, anion exchange, SEC where appropriate); not shown: His6, N-terminal, cleaved; MBP, N-terminal, cleaved
Question: B5 was tested. Which “stoichiometry N” value [1] did it give?
Answer: Its value is 24.

B6: SYCE3 1–88 W41E/Y44E (natural protein, human, UniProt A1L190 1-88, looked up)
chain: MDDADPEERNYDNMLKMLSDLNKDLEKLLEEMEKISVQATEMAEDMVVMRTNPTLAESMRRLEDAFVNCKEEMEKNWQELLHETKQRL
notes: SYCE3, human, amino acids 1–88 with W41E and Y44E; also called SYCE3 W41E/Y44E; source: E. coli BL21(DE3), purified (Ni-NTA, amylose, anion exchange, SEC where appropriate); not shown: His6, N-terminal, cleaved; MBP, N-terminal, cleaved
Question: With B6 as the protein, how does the “stoichiometry N” value [3] read?
Answer: Its value is 2.

B7: MBP-SYCE3 fusion protein (natural protein, human, UniProt A1L190 1-88, looked up)
chain: MDDADPEERNYDNMLKMLSDLNKDLEKLLEEMEKISVQATWMAYDMVVMRTNPTLAESMRRLEDAFVNCKEEMEKNWQELLHETKQRL
notes: SYCE3, human; source: E. coli BL21(DE3), purified; not shown: MBP, N-terminal, kept
Question: Which “stoichiometry N” value [1] does the source give for B7 here?
Answer: Its value is 4 and 6.

B8: SYCE3 1–88 P53Q (natural protein, human, UniProt A1L190 1-88, looked up)
chain: MDDADPEERNYDNMLKMLSDLNKDLEKLLEEMEKISVQATWMAYDMVVMRTNQTLAESMRRLEDAFVNCKEEMEKNWQELLHETKQRL
notes: SYCE3, human, amino acids 1–88 with P53Q; also called SYCE3 P53Q; source: E. coli BL21(DE3), purified (Ni-NTA, amylose, anion exchange, SEC where appropriate); not shown: His6, N-terminal, cleaved; MBP, N-terminal, cleaved
Question: Does B8 bind [3]?
Answer: Result: binds

B9: SYCE3 12–88 L15N (domain or fragment, human, UniProt A1L190 12-88, looked up)
chain: DNMNKMLSDLNKDLEKLLEEMEKISVQATWMAYDMVVMRTNPTLAESMRRLEDAFVNCKEEMEKNWQELLHETKQRL
notes: SYCE3, human, amino acids 12–88 with point mutation L15N; source: E. coli BL21(DE3), purified (Ni-NTA, amylose, anion exchange, SEC where appropriate); not shown: His6, N-terminal, cleaved; MBP, N-terminal, cleaved
Question: B9 was tested. Which “stoichiometry N” value [3] did it give?
Answer: Its value is 2.

B10: SYCE3 12–88 (domain or fragment, human, UniProt A1L190 12-88, looked up)
chain: DNMLKMLSDLNKDLEKLLEEMEKISVQATWMAYDMVVMRTNPTLAESMRRLEDAFVNCKEEMEKNWQELLHETKQRL
notes: SYCE3, human, amino acids 12–88 (α1 N-terminal tip removed, structural core kept); source: E. coli BL21(DE3), purified (Ni-NTA, amylose, anion exchange, SEC where appropriate); not shown: His6, N-terminal, cleaved; MBP, N-terminal, cleaved
Question: B10 was tested. Which “stoichiometry N” value [1] did it give?
Answer: Its value is 2.
